Complementation efficiency (intensity ratio of the specific BiFC signal by leucine zippers to the nonspecific signal via mutated leucine zippers) data for one substance are collected here from paper PMC4109008.

The target of the test is zipper-mEos3.2C (split site 164E). Description: split reporter (BiFC, NanoBiT); BiFC signal of E. coli cultures read in a plate reader with 480 nm excitation at different culture durations, normalised to OD600; zippers against mutated zippers.

Turning to “mEos3.2N-Zipper (split site 164E) (peptide)”, the complementation efficiency (intensity ratio of the specific BiFC signal by leucine zippers to the nonspecific signal via mutated leucine zippers) is < 12.
